Assay results published in patent publication US20200199244A1 (published 2020).
Residue numbers refer to the chain shown, from its start. Values joined by “and” are separate entries in the source; they are usually repeats but may differ in a detail not shown here. Equal values may be shown once. Values belong to the binder of their own block, whether it stands above or below them.

Tests used:
biotinylated human CD40 [1] = target: T1, biotinylated human CD40 (human, UniProt P25942 21-193, limits assumed, biotinylated (sites not given)); test: SPR, BIAcore 3000, 10 µM dAb alone over biotinylated human CD40
T1 construct: Biotinylated human CD40 (supplied by BMS), about 600 RU immobilised on a streptavidin BIAcore chip; also called hCD40

[2] = target: T2, human CD40 (W109R) Fc fusion (Chimpanzee CD40) (human, UniProt P25942 21-193); test: SPR ProteOn XPR36;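 further: surface plasmon resonance with CD40-Fc fusions captured through their Fc on an anti-human IgG chip, sensorgrams reference-subtracted against surfaces lacking CD40-Fc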
T2 construct: As m1 with W109R (residue of chimpanzee CD40); also called hCD40-M3; not shown: human IgG1 Fc

[3] = target: T3, human CD40 (W109L, L121P) Fc fusion (human, UniProt P25942 21-193); test: SPR ProteOn XPR36;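 further: surface plasmon resonance with CD40-Fc fusions captured through their Fc on an anti-human IgG chip, sensorgrams reference-subtracted against surfaces lacking CD40-Fc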
T3 construct: As m1 with W109L and L121P; also called hCD40-M4; not shown: human IgG1 Fc

[4] = target: T4, human CD40 (H76R, W109L, L121P) Fc fusion (human); test: SPR ProteOn XPR36;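 further: surface plasmon resonance with CD40-Fc fusions captured through their Fc on an anti-human IgG chip, sensorgrams reference-subtracted against surfaces lacking CD40-Fc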
T4 construct: As m1 with H76R, W109L and L121P; also called hCD40-M5; not shown: human IgG1 Fc
T4 chain: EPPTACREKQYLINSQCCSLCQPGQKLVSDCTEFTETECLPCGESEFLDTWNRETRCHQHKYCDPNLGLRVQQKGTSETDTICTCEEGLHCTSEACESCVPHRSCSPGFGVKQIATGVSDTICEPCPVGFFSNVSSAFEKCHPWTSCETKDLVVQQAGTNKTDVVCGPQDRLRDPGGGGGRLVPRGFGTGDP

[5] = target: T5, human CD40 (W109L) Fc fusion (human, UniProt P25942 21-193); test: SPR ProteOn XPR36;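 further: surface plasmon resonance with CD40-Fc fusions captured through their Fc on an anti-human IgG chip, sensorgrams reference-subtracted against surfaces lacking CD40-Fc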
T5 construct: As m1 with W109L; also called hCD40-M2; not shown: human IgG1 Fc

[6] = target: T6, wild type cynomolgus monkey CD40 Fc fusion (cynomolgus monkey; human); test: SPR ProteOn XPR36
T6 construct: also called wt-cyno-CD40; wt-cCD40; not shown: human IgG1 Fc
T6 chain: T4 chain with A95S, S106L, H142R, L172Q

[7] = target: T7, human CD40 (H76R) Fc fusion (human, UniProt P25942 21-193); test: SPR ProteOn XPR36, CD40-Fc captured, dAb analyte
T7 construct: As m1 with H76R; also called hCD40-M1; not shown: human IgG1 Fc

[8] = target: T8, wild type human CD40 Fc fusion (human, UniProt P25942 21-193); test: SPR ProteOn XPR36, CD40-Fc captured, dAb analyte
T8 construct: also called wt-hCD40; not shown: human IgG1 Fc

[9] = target: T9, cynomolgus monkey CD40 on CD20+ B cells in blood (Macaca fascicularis (cynomolgus monkey), UniProt P25942 21-277 (human entry)); test: flow cytometry on whole blood, anti-PEG detection, gate on CD20+ B cells
T9 construct: also called cynoCD40
T9 chain: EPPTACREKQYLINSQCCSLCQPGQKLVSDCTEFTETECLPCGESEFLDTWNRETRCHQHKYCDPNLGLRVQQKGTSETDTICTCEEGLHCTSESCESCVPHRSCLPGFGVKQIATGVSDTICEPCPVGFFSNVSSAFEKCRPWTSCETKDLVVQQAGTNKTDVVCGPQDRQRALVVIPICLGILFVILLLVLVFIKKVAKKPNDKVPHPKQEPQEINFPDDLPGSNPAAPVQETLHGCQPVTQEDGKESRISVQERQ
Description: (§1) 100 μl from each blood sample was aliquoted to 12×75 mm tubes and washed 3 times with FACS buffer (0.5% FBS/PBS/0.1% sodium azide). Tubes were centrifuged for 5 minutes at 1500 rpm, and supernatants were decanted between washes. Following the washes, tubes were placed on ice and incubated with human IgG for 5 minutes to block non-specific binding via Fc receptors.
(§2) Samples were washed once in FACS buffer, then incubated with an APC-labeled CD20 antibody (clone 2H7, BD Biosciences) and PE labeled-anti-mouse IgG (Fcγ1 specific; Calbiochem) for an additional 30 minutes on ice.
(§3) To lyse red blood cells and fix white blood cells following detection antibody incubation, FACS Lysing Solution (BD Biosciences) was added to all tubes, and samples were incubated for 15 minutes at room temperature. Samples were centrifuged and resuspended in FACS Lysing Solution, and analyzed by flow cytometry on a BD FACSCanto™, gating on CD20+ B cells for analysis. For marmoset samples, the CD20 antibody was not cross reactive; therefore analysis was performed on all lymphocytes as identified by forward and side scatter properties (size).

[10] = target: T10, rhesus macaque CD40 on CD20+ B cells in blood (rhesus macaque, UniProt F6SNI1 21-278); test: as above
T10 construct: whole, on cells; also called rhesus CD40
Description: as §1, §2, §3

[11] = target: T11, marmoset CD40 on blood lymphocytes (marmoset, UniProt Q3LRP1 21-274); test: flow cytometry on whole blood, anti-PEG detection, all lymphocytes by scatter
T11 construct: whole, on cells
Description: as §1, §2, §3

biotinylated human CD40 [12] = target: T1, biotinylated human CD40; test: SPR, BIAcore 3000, 5 µM dAb alone over biotinylated human CD40
Description: (§4) A BIAcore™ 3000 instrument (GE Healthcare) was used to analyze whether CD40-specific dAbs bound the same CD40 epitope. […] A second flow-cell without any ligand immobilized served as a reference flow-cell for inline referencing. An appropriate dilution of each dAb or Fab to be analyzed was prepared in HBS-EP buffer (0.01 M HEPES pH 7.4 with 0.15 M NaCl, 3 mM EDTA and 0.005% v/v Surfactant P20, GE Healthcare). […] Next, a mixture of the same dAb or Fab as above (at the same final concentration) was prepared with a second dAb or Fab to be analyzed for competition. The COINJECT function of the instrument was used to inject 60 μl of the single-inhibitor dilution across the CD40-immobilized and reference flow-cells in series, followed immediately by a 60 μl injection of the two-inhibitor mixture. Inline subtraction of the signal from the reference cell was performed by the instrument's control software. The experiment was performed at 25° C. and a flow rate of 30 μl/min of HBS-EP. […] The maximum RU obtained for the second injection (the mixture of the two inhibitors) was noted and expressed as a percentage of the RU obtained for the same inhibitor when injected alone.

biotinylated human CD40 [13] = target: T1, biotinylated human CD40; test: SPR, BIAcore 3000, dAb injected alone over biotinylated human CD40 on SA chip
Description: as §4

biotinylated human CD40 [14] = target: T1, biotinylated human CD40; test: SPR, BIAcore 3000 COINJECT over biotinylated human CD40; mixture after first injection; competitor BMS3h-56-5
Description: as §4

[15] = target: T2, human CD40 (W109R) Fc fusion …; test: SPR ProteOn XPR36, CD40-Fc captured, dAb analyte
Description: (§5) Assays were performed on a BioRad ProteOn XPR36 SPR instrument. The SPR surfaces were prepared by immobilizing 8 μg/ml anti-human IgG(Fc) antibody (Biacore/GE Healthcare) in 10 mM sodium acetate pH 4.5 on a BioRad GLC sensor chip using standard ethyl(dimethylaminopropyl) carbodiimide (EDC)/N-hydroxysuccinimide (NHS) chemistry, with ethanolamine blocking. The running buffer for immobilization and kinetic binding analysis was 10 mM sodium phosphate, 130 mM sodium chloride, 0.05% tween 20, pH 7.1. CD40-Fc fusion proteins at concentrations of 20 μg/ml were captured in the vertical orientation on these surfaces via the Fc tail, and reference surfaces lacking CD40-Fc proteins were used for reference subtraction. […] The surfaces were regenerated in both horizontal and vertical orientations with 30 s pulses of 3 M MgCl₂ followed by running buffer at 60 μl/min. Sensogram data was double-referenced and then fitted to a 1:1 Langmuir model using BioRad ProteOn Manager V.2.1.0.38 software, to determine the association rate constant (ka), the dissociation rate constant (kd), and the equilibrium dissociation constant (KD).

[16] = target: T3, human CD40 (W109L, L121P) Fc fusion; test: SPR ProteOn XPR36, CD40-Fc captured, dAb analyte
Description: as §5

[17] = target: T4, human CD40 (H76R, W109L, L121P) Fc …; test: SPR ProteOn XPR36, CD40-Fc captured, dAb analyte
Description: as §5

[18] = target: T5, human CD40 (W109L) Fc fusion; test: SPR ProteOn XPR36, CD40-Fc captured, dAb analyte
Description: as §5

[19] = target: T6, wild type cynomolgus monkey CD40 Fc …; test: SPR ProteOn XPR36, CD40-Fc captured, dAb analyte
Description: as §5

- binding result [2]: no binding (tested: 405 nM)
- binding result [3]: no binding (tested: 405 nM)
- binding result [4]: no binding (tested: 405 nM)
- binding result [5]: no binding (tested: 405 nM)
- binding result [6]: no binding (tested: 405 nM)
- Kd [7]: 7200 pM
- Kd [8]: 5100 pM and 8000 pM
B2: BMS3h-38-2 (other)
VH: EVQLLASGGGLVQPGGSLRLSCAASGFTFEEEEMIWVRQAPGKGLEWVSAISGSGGSTYYADSVKGRFTISRDNSKNTLYLQMNSLRAEDTAVYYCGKEPFRYDYWGQGTLVTVSS
notes: domain antibody (dAb), single VH domain

- binding result [9]: no binding
- binding result [10]: no binding
- binding result [11]: no binding
B3: BMS3h38-2C-P40Br (other)
VH: B2 VH
modifications: PEGylated; attachment residue not stated
notes: PEGylated form of dAb BMS3h-38-2; also called PEGylated anti-human CD40 dAb

- binding result [9]: no binding
- binding result [10]: no binding
- binding result [11]: no binding
B8: BMS3h-56-5C-40L (other)
VH: EVQLLESGGGLVQPGGSLRLSCAASGFTFRDYEMWWVRQAPGKGLERVSAINPQGTRTYYADSVMGRFTISRDNSKNTLYLQMNSLRAEDTAVYYCAKLPFTFDDWGQGTLVTVSS
modifications: PEGylated; attachment residue not stated
notes: PEGylated form of dAb BMS3h-56-5; also called PEGylated anti-human CD40 dAb

- Single dAb RU (biotinylated human CD40 [1]): 85 RU
B9: BMS3h-217 (other)
VL: DIQMTQSPSSLSASVGDRVTITCRASHFIGTLLSWYQQKPGKAPKLLITYGSLLQSGVPSRFSGSGSGTDFTLTISSLQPEDFATYYCGQGVLWPATFGQGTKVEIKR
notes: Domain antibody (dAb), single human V kappa domain

- Kd [15]: 1200 pM
- Kd [16]: 1600 pM
- Kd [17]: 2200 pM
- Kd [18]: 2000 pM
- Kd [7]: 1600 pM
- Kd [19]: 1900 pM
- Kd [8]: 780 pM and 1500 pM
B11: BMS3h-217-23 (other)
VL: B9 VL with T31S, Q38V, K103T
notes: domain antibody (dAb), single VK domain

- Kd [15]: 720 pM
- Kd [16]: 930 pM
- Kd [17]: 1000 pM
- Kd [18]: 990 pM
- Kd [7]: 940 pM
- Kd [19]: 900 pM
- Kd [8]: 470 pM and 480 pM
B12: BMS3h-217-5 (other)
VL: B9 VL with S10F, G30A, A96P
notes: as for B11

The remaining lines, values behind:

B1: BMS3h-107 (other)
VH: EVQLLESGGGLVQPGGSLRLSCAASGFTFSGYDMQWVRQAPGKGLEWVSTISASGVFTYYADSVKGRFTTSRDNSKNTLYLQMNSLRAEDTAVYYCAKYPNRFALNNFDYWGQGTLVTVSS
notes: Domain antibody (dAb), single human VH domain
- Single dAb RU (biotinylated human CD40 [1]): 35 RU

B4: BMS3h-193-12 (other)
VL: DIQMTQSPSSLSASVGDRVTITCRASQTIERRLNWYQQKPGKAPKLLIYLASRLQSGVPSRFSGSGSGTDFTLTISSLQPEDFATYYCHQYESPPLTFGQGTKVEIKR
notes: as for B9
- Single dAb RU (biotinylated human CD40 [12]): 282 RU

B5: BMS3h-41-13 (other)
VH: EVQLLESAGGLVQPGGSLRLSCAASGFTFAEYEMIWVRQAPGKGLEWVSSISGNGANTYYADSVKGRFTISRDNSKNTLYLQMNSLRAEDTAVYYCAKEPLRFDYWGQGALVTVSS
notes: as for B1
- Single dAb RU (biotinylated human CD40 [12]): 162 RU

B6: BMS3h-43-1 (other)
VH: EVQLLESGGGLVQPGGSLRLSCTASGFTFNMYEMSWVRQAPGKGLEWVSGISRRGFTTYYADSVKGRFTISRDNSKNTLYLQMNSLRAEDTAVYYCAKEPITYDLRYARFDYSGQGTLVTVSS
notes: as for B1
- RU first dAb alone (biotinylated human CD40 [13]): 210 RU
- Second Injection (% of single dAb RU) (biotinylated human CD40 [14]): 22%

B7: BMS3h-43-3 (other)
VH: B6 VH with S75F, L105M, S113G
notes: as for B1
- Single dAb RU (biotinylated human CD40 [12]): 300 RU

B10: BMS3h-217-16 (other)
VL: B9 VL with G41R, A96P
notes: as for B11
- Kd [15]: 270 pM
- Kd [16]: 350 pM
- Kd [17]: 500 pM
- Kd [18]: 410 pM
- Kd [7]: 350 pM
- Kd [19]: 400 pM
- Kd [8]: 220 pM and 260 pM

B13: BMS3h-106 (other)
VH: EVQLLESGGGLVQPGGSLRLSCAASGFTFSTYHMQWVRQAPGKGLEWVSMIDADGLGTYYADSVKGRFTISRDNSKNTLYLQMNSLRAEDTAVYYCAKPGPQFGQFDYWGQGTLVTVSS
notes: as for B1
- Single dAb RU (biotinylated human CD40 [1]): 165 RU
